Results from paper PMC6271940.

T1: angiotensin I-converting enzyme (UniProt P12822)
T1 sequence: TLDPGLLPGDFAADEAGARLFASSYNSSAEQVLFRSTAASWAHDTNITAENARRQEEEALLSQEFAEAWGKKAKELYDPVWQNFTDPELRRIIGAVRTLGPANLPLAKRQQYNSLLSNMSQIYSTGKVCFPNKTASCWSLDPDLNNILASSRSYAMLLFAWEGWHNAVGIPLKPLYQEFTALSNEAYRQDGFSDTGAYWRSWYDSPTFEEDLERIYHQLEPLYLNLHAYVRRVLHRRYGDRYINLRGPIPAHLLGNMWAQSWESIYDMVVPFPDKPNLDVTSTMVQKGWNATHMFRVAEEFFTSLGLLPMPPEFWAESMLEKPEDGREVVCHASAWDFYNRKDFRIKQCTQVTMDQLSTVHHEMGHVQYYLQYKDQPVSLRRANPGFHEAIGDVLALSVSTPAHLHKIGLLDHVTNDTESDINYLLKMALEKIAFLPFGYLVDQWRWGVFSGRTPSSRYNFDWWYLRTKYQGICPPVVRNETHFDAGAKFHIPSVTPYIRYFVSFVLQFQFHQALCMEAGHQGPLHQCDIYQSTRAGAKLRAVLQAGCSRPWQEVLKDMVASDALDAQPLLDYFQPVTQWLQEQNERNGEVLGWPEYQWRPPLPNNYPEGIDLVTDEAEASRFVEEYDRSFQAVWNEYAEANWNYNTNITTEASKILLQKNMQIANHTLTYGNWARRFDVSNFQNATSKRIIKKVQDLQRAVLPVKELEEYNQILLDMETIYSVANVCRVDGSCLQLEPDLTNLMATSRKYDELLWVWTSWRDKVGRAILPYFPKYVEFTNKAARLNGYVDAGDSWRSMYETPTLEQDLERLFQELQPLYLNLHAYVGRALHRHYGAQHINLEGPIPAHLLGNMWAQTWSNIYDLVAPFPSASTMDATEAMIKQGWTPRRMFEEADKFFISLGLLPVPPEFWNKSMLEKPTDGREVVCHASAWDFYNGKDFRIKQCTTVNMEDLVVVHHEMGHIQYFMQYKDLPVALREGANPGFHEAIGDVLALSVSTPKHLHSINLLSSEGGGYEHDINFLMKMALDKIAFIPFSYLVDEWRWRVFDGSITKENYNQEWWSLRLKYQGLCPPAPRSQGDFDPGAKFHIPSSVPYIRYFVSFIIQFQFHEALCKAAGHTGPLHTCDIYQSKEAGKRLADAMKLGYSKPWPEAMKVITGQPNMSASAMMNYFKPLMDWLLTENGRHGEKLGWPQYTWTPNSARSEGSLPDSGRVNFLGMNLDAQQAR


Biological target: T1, angiotensin I-converting enzyme

| ACE inhibitory activity (release of hippuric acid from HHL, HPLC at 228 nm; 50 mM borate, 0.3 M NaCl, pH 8.3, 37 °C, 60 min), IC50 | Molecule |
| --- | --- |
| 1.3 μM | VKP (peptide) |
| 34.5 μM | VKCFR |
